The results in this text go back to patent US20110039770A1 (PHARMAGAP, published 2011).

Where two headings read alike, the source gives them in different places.

Assay [1] has as its target T1, PKC-ζ in extracts of human cell lines (human, UniProt Q05513 1-592).
T1 construct: Denatured on the Western blot membrane; also called PKC-zeta (cell extract)
T1 sequence (looked up): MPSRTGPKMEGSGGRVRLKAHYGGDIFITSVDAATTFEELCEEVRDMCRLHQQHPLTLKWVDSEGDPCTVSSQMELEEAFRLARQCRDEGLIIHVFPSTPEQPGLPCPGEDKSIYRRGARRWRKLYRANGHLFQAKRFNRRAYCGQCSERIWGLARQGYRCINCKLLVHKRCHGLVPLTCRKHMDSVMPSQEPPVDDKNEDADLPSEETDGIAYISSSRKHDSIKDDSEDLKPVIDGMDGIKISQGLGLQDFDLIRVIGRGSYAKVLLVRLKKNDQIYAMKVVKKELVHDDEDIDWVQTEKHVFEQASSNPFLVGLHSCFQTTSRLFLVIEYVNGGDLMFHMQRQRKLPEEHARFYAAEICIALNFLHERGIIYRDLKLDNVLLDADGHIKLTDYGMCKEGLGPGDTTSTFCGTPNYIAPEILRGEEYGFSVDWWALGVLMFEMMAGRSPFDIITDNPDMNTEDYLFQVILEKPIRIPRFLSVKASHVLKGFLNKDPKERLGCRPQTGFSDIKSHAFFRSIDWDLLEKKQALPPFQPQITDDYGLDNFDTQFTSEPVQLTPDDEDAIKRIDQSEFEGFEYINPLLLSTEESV
Kind of assay: Western-blot competition, cell extracts: PRE at 10X/20X the anti-PKC zeta primary antibody concentration competes with that antibody; band densitometry (lower band = PRE bound).

For assay [2], the target named is T2, PKC-βII, purified isoform (UniProt P05771-2 1-673).
T2 construct: also called PKC-beta II; beta 2
Kind of assay: purified isoform competition ELISA, summary grade.

Assay [3] concerns the target T3, PKC-ι in extracts of human cell lines (human, UniProt P41743 2-596).
T3 construct: Denatured on the Western blot membrane; also called PKC-iota (cell extract)
T3 sequence (looked up): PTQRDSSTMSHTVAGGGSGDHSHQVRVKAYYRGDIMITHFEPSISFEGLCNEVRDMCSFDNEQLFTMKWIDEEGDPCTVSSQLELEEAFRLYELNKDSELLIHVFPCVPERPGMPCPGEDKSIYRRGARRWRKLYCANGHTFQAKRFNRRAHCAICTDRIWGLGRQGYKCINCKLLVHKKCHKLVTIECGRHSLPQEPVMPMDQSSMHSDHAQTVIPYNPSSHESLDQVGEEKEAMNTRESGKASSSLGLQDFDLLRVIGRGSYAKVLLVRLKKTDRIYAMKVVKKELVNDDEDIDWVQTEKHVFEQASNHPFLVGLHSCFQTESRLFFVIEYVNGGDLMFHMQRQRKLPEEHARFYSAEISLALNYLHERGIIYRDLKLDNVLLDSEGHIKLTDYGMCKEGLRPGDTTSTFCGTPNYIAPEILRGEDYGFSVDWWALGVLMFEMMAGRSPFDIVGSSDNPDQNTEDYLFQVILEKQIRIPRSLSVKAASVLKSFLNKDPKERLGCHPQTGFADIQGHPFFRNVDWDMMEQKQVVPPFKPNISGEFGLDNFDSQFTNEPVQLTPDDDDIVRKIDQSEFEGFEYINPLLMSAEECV
In words: Western-blot competition, cell extracts: PRE at 10X/20X the anti-PKC iota primary antibody concentration competes with that antibody; band densitometry (lower band = PRE bound).

In assay [4] the target is T3, PKC-ι in extracts of human cell lines. The description is as above. This is another data set of the same source.
The target in assay [5] is T4, PKC-ε, purified isoform (UniProt Q02156 1-737).
T4 construct: also called PKC-epsilon; epsilon
T4 sequence (looked up): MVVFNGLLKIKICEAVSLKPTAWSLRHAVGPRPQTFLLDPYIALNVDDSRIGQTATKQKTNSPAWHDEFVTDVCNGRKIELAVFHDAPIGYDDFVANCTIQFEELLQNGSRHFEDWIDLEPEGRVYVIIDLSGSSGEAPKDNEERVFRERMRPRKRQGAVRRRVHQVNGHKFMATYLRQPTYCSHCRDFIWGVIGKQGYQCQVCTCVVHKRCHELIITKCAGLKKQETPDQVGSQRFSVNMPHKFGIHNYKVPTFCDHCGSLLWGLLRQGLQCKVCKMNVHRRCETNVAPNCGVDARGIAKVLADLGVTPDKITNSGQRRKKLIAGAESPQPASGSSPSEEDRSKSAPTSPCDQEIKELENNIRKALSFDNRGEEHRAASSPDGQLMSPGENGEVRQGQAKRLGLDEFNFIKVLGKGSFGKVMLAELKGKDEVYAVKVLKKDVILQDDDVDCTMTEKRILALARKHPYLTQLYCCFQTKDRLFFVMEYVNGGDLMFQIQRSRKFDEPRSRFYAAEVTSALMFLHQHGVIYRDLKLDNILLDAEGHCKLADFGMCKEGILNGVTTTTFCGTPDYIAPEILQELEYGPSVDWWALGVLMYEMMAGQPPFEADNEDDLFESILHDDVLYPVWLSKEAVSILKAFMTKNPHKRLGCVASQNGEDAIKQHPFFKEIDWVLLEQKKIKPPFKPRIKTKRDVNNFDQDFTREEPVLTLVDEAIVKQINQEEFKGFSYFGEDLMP
In words: competition ELISA on coated purified PKC-ε vs anti-PKC ε antibody; PRE 100 µM.

In assay [6] the target is T4, PKC-ε, purified isoform. Kind of assay: competition ELISA on coated purified PKC-ε vs anti-PKC ε antibody; PRE 50 µM.
For assay [7], the target named is T1, PKC-ζ in extracts of human cell lines. In words: Western-blot competition, cell extracts: PRE at 10X/20X the anti-PKC zeta primary antibody concentration competes with that antibody; band densitometry (lower band = PRE bound). The source holds these as a separate data set.
In assay [8] the target is T4, PKC-ε, purified isoform. Kind of assay: competition ELISA on coated purified PKC-ε vs anti-PKC ε antibody; PRE 200 µM.
The target of assay [9] is T3, PKC-ι in extracts of human cell lines. Kind of assay: Western-blot competition, cell extracts: PRE at 10X/20X the anti-PKC iota primary antibody concentration competes with that antibody; band densitometry (lower band = PRE bound). This is another data set of the same source.
Assay [10] has as its target T5, PKC-βI, purified isoform (UniProt P05771-1 1-671).
T5 construct: also called PKC-beta I; beta 1
In words: purified isoform competition ELISA, summary grade.

The target in assay [11] is T4, PKC-ε, purified isoform. In words: purified isoform competition ELISA, summary grade.
Assay [12] addresses T1, PKC-ζ in extracts of human cell lines. Kind of assay: Western-blot competition, cell extracts: PRE at 10X/20X the anti-PKC zeta primary antibody concentration competes with that antibody; band densitometry (lower band = PRE bound). This is another data set of the same source.
Assay [13] has as its target T6, PKC-βI in extracts of human cell lines (human, UniProt P05771-1 2-671).
T6 construct: Denatured on the Western blot membrane; beta I splice form; also called PKC-beta I (cell extract)
Kind of assay: Western-blot competition, cell extracts: PRE at 10X/20X the anti-PKC beta I primary antibody concentration competes with that antibody; band densitometry (lower band = PRE bound).

The target of assay [14] is T7, PKC-ε in extracts of human cell lines (human, UniProt Q02156 1-737).
T7 construct: Denatured on the Western blot membrane; also called PKC-epsilon (cell extract)
T7 sequence (looked up): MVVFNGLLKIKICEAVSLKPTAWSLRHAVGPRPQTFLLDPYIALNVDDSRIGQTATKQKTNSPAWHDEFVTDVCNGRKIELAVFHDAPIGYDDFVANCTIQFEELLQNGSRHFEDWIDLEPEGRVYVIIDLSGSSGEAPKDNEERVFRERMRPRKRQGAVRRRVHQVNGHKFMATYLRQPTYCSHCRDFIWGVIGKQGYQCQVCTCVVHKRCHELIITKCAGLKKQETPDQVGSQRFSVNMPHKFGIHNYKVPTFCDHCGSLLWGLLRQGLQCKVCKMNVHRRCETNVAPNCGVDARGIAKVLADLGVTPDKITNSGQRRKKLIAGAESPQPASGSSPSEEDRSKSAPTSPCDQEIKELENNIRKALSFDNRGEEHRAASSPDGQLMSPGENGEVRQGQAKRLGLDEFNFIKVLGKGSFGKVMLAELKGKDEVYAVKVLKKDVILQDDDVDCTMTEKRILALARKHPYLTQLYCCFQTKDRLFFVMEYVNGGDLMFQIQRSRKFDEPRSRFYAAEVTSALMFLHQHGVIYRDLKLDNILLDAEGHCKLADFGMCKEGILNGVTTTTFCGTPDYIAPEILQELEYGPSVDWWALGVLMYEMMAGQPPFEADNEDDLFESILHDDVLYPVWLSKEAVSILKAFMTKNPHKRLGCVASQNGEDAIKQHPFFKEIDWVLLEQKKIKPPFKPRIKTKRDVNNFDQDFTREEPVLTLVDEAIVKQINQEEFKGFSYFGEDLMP
In words: Western-blot competition, cell extracts: PRE at 10X/20X the anti-PKC epsilon primary antibody concentration competes with that antibody; band densitometry (lower band = PRE bound).

For assay [15], the target named is T3, PKC-ι in extracts of human cell lines. In words: Western-blot competition, cell extracts: PRE at 10X/20X the anti-PKC iota primary antibody concentration competes with that antibody; band densitometry (lower band = PRE bound). This is another data set of the same source.
Assay [16] has as its target T1, PKC-ζ in extracts of human cell lines. Kind of assay: Western-blot competition, cell extracts: PRE at 10X/20X the anti-PKC zeta primary antibody concentration competes with that antibody; band densitometry (lower band = PRE bound). This is another data set of the same source.
Assay [17] deals with T3, PKC-ι in extracts of human cell lines. Kind of assay: Western-blot competition, cell extracts: PRE at 10X/20X the anti-PKC iota primary antibody concentration competes with that antibody; band densitometry (lower band = PRE bound). The source holds these as a separate data set.
Assay [18] deals with T1, PKC-ζ in extracts of human cell lines. In words: Western-blot competition, cell extracts: PRE at 10X/20X the anti-PKC zeta primary antibody concentration competes with that antibody; band densitometry (lower band = PRE bound). This is another data set of the same source.
Assay [19] concerns the target T3, PKC-ι in extracts of human cell lines. In words: Western-blot competition, cell extracts: PRE at 10X/20X the anti-PKC iota primary antibody concentration competes with that antibody; band densitometry (lower band = PRE bound). The source holds these as a separate data set.

T2 sequence (P05771 other isoform, or with tags, fused parts or gaps limits assumed): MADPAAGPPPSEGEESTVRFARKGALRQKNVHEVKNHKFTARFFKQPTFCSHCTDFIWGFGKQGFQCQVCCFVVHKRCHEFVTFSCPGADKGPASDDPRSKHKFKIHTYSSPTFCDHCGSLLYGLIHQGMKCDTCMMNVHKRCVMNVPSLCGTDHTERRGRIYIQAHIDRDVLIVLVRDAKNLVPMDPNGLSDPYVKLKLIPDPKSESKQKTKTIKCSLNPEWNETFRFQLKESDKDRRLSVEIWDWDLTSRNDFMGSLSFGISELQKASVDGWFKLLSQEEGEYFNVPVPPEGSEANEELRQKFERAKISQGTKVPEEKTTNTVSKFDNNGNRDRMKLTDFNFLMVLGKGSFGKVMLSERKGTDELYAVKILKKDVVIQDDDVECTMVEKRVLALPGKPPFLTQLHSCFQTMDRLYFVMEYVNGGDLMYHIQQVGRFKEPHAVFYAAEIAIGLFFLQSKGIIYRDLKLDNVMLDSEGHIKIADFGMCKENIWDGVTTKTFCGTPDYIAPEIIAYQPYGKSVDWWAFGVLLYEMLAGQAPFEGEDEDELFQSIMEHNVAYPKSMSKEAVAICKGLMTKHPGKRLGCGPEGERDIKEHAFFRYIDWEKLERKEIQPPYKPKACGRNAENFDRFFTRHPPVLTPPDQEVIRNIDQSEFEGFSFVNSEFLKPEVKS
T6 sequence (P05771 2-671 limits assumed): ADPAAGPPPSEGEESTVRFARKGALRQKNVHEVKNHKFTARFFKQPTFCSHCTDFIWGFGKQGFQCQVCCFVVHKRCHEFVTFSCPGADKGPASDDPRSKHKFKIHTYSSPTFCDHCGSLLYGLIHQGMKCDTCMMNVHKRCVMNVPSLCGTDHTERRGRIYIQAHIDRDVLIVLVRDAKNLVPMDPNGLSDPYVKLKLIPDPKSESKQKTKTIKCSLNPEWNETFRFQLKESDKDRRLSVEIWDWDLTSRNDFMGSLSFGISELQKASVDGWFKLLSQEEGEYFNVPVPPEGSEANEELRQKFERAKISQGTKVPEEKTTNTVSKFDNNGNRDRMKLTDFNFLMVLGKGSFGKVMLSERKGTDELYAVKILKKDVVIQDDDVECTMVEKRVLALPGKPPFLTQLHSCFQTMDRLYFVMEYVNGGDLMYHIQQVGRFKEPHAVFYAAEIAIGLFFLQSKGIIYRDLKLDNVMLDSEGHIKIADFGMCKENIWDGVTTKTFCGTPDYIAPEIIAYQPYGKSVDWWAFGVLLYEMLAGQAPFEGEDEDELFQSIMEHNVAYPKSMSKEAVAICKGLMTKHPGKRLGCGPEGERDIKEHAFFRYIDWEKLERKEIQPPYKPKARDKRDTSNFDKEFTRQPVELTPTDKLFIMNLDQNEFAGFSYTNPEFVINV
T5 sequence (P05771 whole entry, canonical isoform): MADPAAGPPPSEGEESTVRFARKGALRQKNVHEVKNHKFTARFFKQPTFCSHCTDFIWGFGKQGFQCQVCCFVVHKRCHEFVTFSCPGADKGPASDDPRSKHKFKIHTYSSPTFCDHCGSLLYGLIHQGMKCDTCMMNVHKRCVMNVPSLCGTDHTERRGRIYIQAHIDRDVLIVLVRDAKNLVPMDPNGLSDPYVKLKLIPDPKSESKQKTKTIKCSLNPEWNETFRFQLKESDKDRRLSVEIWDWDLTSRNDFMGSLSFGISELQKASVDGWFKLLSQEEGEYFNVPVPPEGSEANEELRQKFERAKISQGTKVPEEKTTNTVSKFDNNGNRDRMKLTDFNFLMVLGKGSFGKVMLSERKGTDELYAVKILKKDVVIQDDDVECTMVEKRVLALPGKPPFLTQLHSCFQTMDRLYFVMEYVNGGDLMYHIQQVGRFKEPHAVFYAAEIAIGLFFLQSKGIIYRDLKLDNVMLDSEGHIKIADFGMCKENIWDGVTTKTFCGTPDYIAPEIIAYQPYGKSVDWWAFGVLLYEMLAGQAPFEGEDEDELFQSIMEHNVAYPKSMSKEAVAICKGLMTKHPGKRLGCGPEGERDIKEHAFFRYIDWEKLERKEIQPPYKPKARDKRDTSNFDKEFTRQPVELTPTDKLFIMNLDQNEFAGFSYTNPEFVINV

B1: PRE 6 (peptide)
peptide: Ac-KDANQLIGISI-NH2
notes: also called peptide recognition element 6
As for B1, the binding result is “no binding (tested: 20X the primary antibody concentration)” in assay [1], “no binding” in assay [2] and “no binding (tested: 20X the primary antibody concentration)” in assay [3].

B2: PRE 4 (peptide)
peptide: Ac-KDAQNLIGISI-NH2
notes: also called peptide recognition element 4
Consider B2, for which the binding result in assay [4] is recorded as “binds”.

B3: PRE 11 (peptide)
peptide: Ac-RDAQNLIGISI-NH2
notes: also called peptide recognition element 11
For the molecule B3, the relative binding capacity in assay [5] came out at 13%; in assay [6], 2.25%; in assay [8] it was 9.84%. In assay [7], the binding result was “no binding (tested: 20X the primary antibody concentration)”.

B4: PRE 3 (peptide)
peptide: Ac-AKGIQEVKGGDAQNLIGISI-NH2
notes: also called peptide recognition element 3
In the case of B4, the relative binding capacity in assay [5] came to 31.5%; in assay [6], 34%; in [8], 31%. Also, the binding result in assay [9] is on record as “binds”.

B5: PRE 13 (peptide)
peptide: Ac-RDAQNLI-NH2
notes: Ac-RDAQNLI-NH2; also called peptide recognition element 13
With B5, the figures for the relative binding capacity in assay [5], in assay [6] and in assay [8] were 0%, 0% and 0.85%, respectively. Further, the binding result in assay [2] is recorded as “no binding”; in assay [10] it was “no binding”; in [11], “no binding”; in [12], “no binding (tested: 20X the primary antibody concentration)”; in assay [13] it was “no binding (tested: 20X the primary antibody concentration)”; in assay [14], “no binding (tested: 20X the primary antibody concentration)”. Moreover, in [15], the binding result is “no binding (tested: 20X the primary antibody concentration)”.

B6: PRE 1 (peptide)
peptide: RRKKGGKDFVVKR
notes: also called peptide recognition element 1
Regarding B6, the binding result was “no binding” in assay [2], “binds” in [16] and “no binding (tested: 20X the primary antibody concentration)” in [17].

B7: PRE 5 (peptide)
peptide: Ac-AKGIQEVKGGKDAQNLIGISI-NH2
notes: also called peptide recognition element 5
Turning to B7, the binding result in assay [18] is “binds”.

B8: PRE 7 (peptide)
peptide: Ac-ISIGILQNADK-NH2
notes: also called peptide recognition element 7
As for B8, the relative binding capacity in [5] came out at 14%; in assay [6], 8.04%; in assay [8] it was 3.78%. Besides, the binding result in assay [19] is given as “no binding (tested: 20X the primary antibody concentration)”.
